From doi:10.1101/2025.11.12.687969 (bioRxiv, 2025)

Target: EGFP–TDP-43 (human, UniProt Q13148 1-414)
Experiment: co-IP

B1: Myc–TDP-43 ΔNLS (natural protein, human, UniProt Q13148-1 1-414, looked up)
chain: MSEYIRVTEDENDEPIEIPSEDDGTVLLSTVTAQFPGACGLRYRNPVSQCMRGVRLVEGILHAPDAGWGNLVYVVNYPKDNAAAMDETDASSAVKVKRAVQKTSDLIVLGLPWKTTEQDLKEYFSTFGEVLMVQVKKDLKTGHSKGFGFVRFTEYETQVKVMSQRHMIDGRWCDCKLPNSKQSQDEPLRSRKVFVGRCTEDMTEDELREFFSQYGDVMDVFIPKPFRAFAFVTFADDQIAQSLCGEDLIIKGISVHISNAEPKHNSNRQLERSGRFGGNPGGFGNQGGFGNSRGGGAGLGNNQGSNMGGGMNFGAFSINPAMMAAAQAALQSSWGMMGMLASQQNQSGPSGNNQNQGNMQREPNQAFGSGNNSYSGSNSGAAIGWGSASNAGSGSGFNGGFGSSMDSKSSGWGM
reduction of the association index relative to WT (log2): 0.77 log2 units
